Measurements published in US20190002539A1 (NATIONAL CENTER FOR AIDS STD CONTROL AND PREVENTION CHINESE …, published 2019).

Legend:
[1] = molecular target: HIV-1 Env of pseudovirus ZM109F (HIV-1); assay: cell-based or functional assay
[2] = molecular target: HIV-1 Env of pseudovirus Q842 (HIV-1); assay: cell-based or functional assay
[3] = molecular target: HIV-1 Env of pseudovirus CH120 (HIV-1); assay: cell-based or functional assay
[4] = molecular target: HIV-1 Env of pseudovirus RHPA4259 (HIV-1); assay: cell-based or functional assay
[5] = molecular target: HIV-1 Env of pseudovirus CH117 (HIV-1); assay: cell-based or functional assay
[6] = molecular target: HIV-1 Env of pseudovirus BJMSM2249 (HIV-1); assay: cell-based or functional assay
[7] = molecular target: HIV-1 Env of pseudovirus Q461 (HIV-1); assay: cell-based or functional assay
[8] = molecular target: HIV-1 Env of pseudovirus Q259 (HIV-1); assay: cell-based or functional assay
[9] = molecular target: HIV-1 Env of pseudovirus CH181 (HIV-1); assay: cell-based or functional assay
[10] = molecular target: HIV-1 Env of pseudovirus CAAN5342 (HIV-1); assay: cell-based or functional assay
[11] = molecular target: HIV-1 Env of pseudovirus MW965 (HIV-1); assay: cell-based or functional assay
[12] = molecular target: HIV-1 Env of pseudovirus QH0692 (HIV-1); assay: cell-based or functional assay
[13] = molecular target: HIV-1 Env of pseudovirus CH110 (HIV-1); assay: cell-based or functional assay
[14] = molecular target: HIV-1 Env of pseudovirus ZM249M (HIV-1); assay: cell-based or functional assay
[15] = molecular target: HIV-1 Env of pseudovirus BJMSM2498 (HIV-1); assay: cell-based or functional assay
[16] = molecular target: HIV-1 Env of pseudovirus Q769 (HIV-1); assay: cell-based or functional assay
[17] = molecular target: HIV-1 Env of pseudovirus CAP45 (HIV-1); assay: cell-based or functional assay
[18] = molecular target: HIV-1 Env of pseudovirus BJMSM2316 (HIV-1); assay: cell-based or functional assay
[19] = molecular target: HIV-1 Env of pseudovirus REJO4541 (HIV-1); assay: cell-based or functional assay
[20] = molecular target: HIV-1 Env of pseudovirus SC422661 (HIV-1); assay: cell-based or functional assay
[21] = molecular target: HIV-1 Env of pseudovirus AC10 (HIV-1); assay: cell-based or functional assay
[22] = molecular target: HIV-1 Env of pseudovirus TRJO4551 (HIV-1); assay: cell-based or functional assay
[23] = molecular target: HIV-1 Env of pseudovirus SF162 (HIV-1, UniProt P19550 32-847); assay: cell-based or functional assay
[24] = molecular target: HIV-1 Env of pseudovirus Du422 (HIV-1); assay: cell-based or functional assay
[25] = molecular target: HIV-1 Env of pseudovirus PV0.4 (HIV-1); assay: cell-based or functional assay
[26] = molecular target: HIV-1 Env of pseudovirus X2278 (HIV-1); assay: cell-based or functional assay
[27] = molecular target: HIV-1 Env of pseudovirus X1632 (HIV-1); assay: cell-based or functional assay
[28] = molecular target: HIV-1 Env of pseudovirus 246 (HIV-1); assay: cell-based or functional assay
[29] = molecular target: HIV-1 Env of pseudovirus Ce0217 (HIV-1); assay: cell-based or functional assay
[30] = molecular target: HIV-1 Env of pseudovirus CNE8 (HIV-1); assay: cell-based or functional assay
[31] = molecular target: HIV-1 Env of pseudovirus 25710 (HIV-1); assay: cell-based or functional assay
[32] = molecular target: HIV-1 Env of pseudovirus 398-F1 (HIV-1); assay: cell-based or functional assay
[33] = molecular target: HIV-1 Env of pseudovirus BJOX2000 (HIV-1); assay: cell-based or functional assay
[34] = molecular target: HIV-1 Env of pseudovirus Ce1176 (HIV-1); assay: cell-based or functional assay
[35] = molecular target: HIV-1 Env of pseudovirus CNE55 (HIV-1); assay: cell-based or functional assay
[36] = molecular target: HIV-1 Env of pseudovirus CH119.10 (HIV-1); assay: cell-based or functional assay
[37] = molecular target: HIV-1 Env of pseudovirus TRO.11 (HIV-1); assay: cell-based or functional assay
wild-type (WT) YU2 gp120 = molecular target: T1, wild-type (WT) YU2 gp120 (HIV-1, UniProt P35961 32-498); assay: ELISA, antigen coated at 2 µg/ml
T1 construct: domain: gp120

B1: monoclonal antibody DRVIA7H+VRC01L (antibody, V domains shown)
VH: QVQLVESGTQFRRPGASVRLSCEASGYTFISSFIHWIRQGPGQGLEWMGWMNPRHGAVNYPRRFQGKVTMTRDTSIDTAYMELRDLRSDDTAMYFCVTSRTKDYDWDFVWGQGTLVVVSS
VL: EIVLTQSPGTLSLSPGETAIISCRTSQYGSLAWYQQRPGQAPRLVIYSGSTRAAGIPDRFSGSRWGPDYNLTISNLESGDFGVYYCQQYEFFGQGTKVQVDI
[1]
  IC50 in µg/ml, TZM-bl/pseudovirus neutralizing assay: 0.59 µg/mL
[2]
  IC50 in µg/ml, TZM-bl/pseudovirus neutralizing assay: 0.18 µg/mL
[3]
  IC50 in µg/ml, TZM-bl/pseudovirus neutralizing assay: 6.53 µg/mL
[4]
  IC50 in µg/ml, TZM-bl/pseudovirus neutralizing assay: 0.34 µg/mL
[5]
  IC50 in µg/ml, TZM-bl/pseudovirus neutralizing assay: 0.59 µg/mL
[6]
  IC50 in µg/ml, TZM-bl/pseudovirus neutralizing assay: 2.25 µg/mL
[7]
  IC50 in µg/ml, TZM-bl/pseudovirus neutralizing assay: 1.4 µg/mL
[8]
  IC50 in µg/ml, TZM-bl/pseudovirus neutralizing assay: > 20 µg/mL
[9]
  IC50 in µg/ml, TZM-bl/pseudovirus neutralizing assay: 0.98 µg/mL
[10]
  IC50 in µg/ml, TZM-bl/pseudovirus neutralizing assay: 3.4 µg/mL
[11]
  IC50 in µg/ml, TZM-bl/pseudovirus neutralizing assay: 0.2 µg/mL
[12]
  IC50 in µg/ml, TZM-bl/pseudovirus neutralizing assay: 2.03 µg/mL
[13]
  IC50 in µg/ml, TZM-bl/pseudovirus neutralizing assay: 0.15 µg/mL
[14]
  IC50 in µg/ml, TZM-bl/pseudovirus neutralizing assay: 0.74 µg/mL
[15]
  IC50 in µg/ml, TZM-bl/pseudovirus neutralizing assay: 4.32 µg/mL
[16]
  IC50 in µg/ml, TZM-bl/pseudovirus neutralizing assay: 0.3 µg/mL
[17]
  IC50 in µg/ml, TZM-bl/pseudovirus neutralizing assay: 0.84 µg/mL
[18]
  IC50 in µg/ml, TZM-bl/pseudovirus neutralizing assay: 0.47 µg/mL
[19]
  IC50 in µg/ml, TZM-bl/pseudovirus neutralizing assay: 0.75 µg/mL
[20]
  IC50 in µg/ml, TZM-bl/pseudovirus neutralizing assay: 0.58 µg/mL
[21]
  IC50 in µg/ml, TZM-bl/pseudovirus neutralizing assay: 15.5 µg/mL
[22]
  IC50 in µg/ml, TZM-bl/pseudovirus neutralizing assay: 1.44 µg/mL
[23]
  IC50 in µg/ml, TZM-bl/pseudovirus neutralizing assay: 0.3 µg/mL
[24]
  IC50 in µg/ml, TZM-bl/pseudovirus neutralizing assay: > 20 µg/mL
[25]
  IC50 in µg/ml, TZM-bl/pseudovirus neutralizing assay: 1.18 µg/mL
[26]
  IC50 in µg/ml, TZM-bl/pseudovirus neutralizing assay: 0.34 µg/mL
[27]
  IC50 in µg/ml, TZM-bl/pseudovirus neutralizing assay: 0.61 µg/mL
[28]
  IC50 in µg/ml, TZM-bl/pseudovirus neutralizing assay: 1.29 µg/mL
[29]
  IC50 in µg/ml, TZM-bl/pseudovirus neutralizing assay: 0.65 µg/mL
[30]
  IC50 in µg/ml, TZM-bl/pseudovirus neutralizing assay: 1.48 µg/mL
[31]
  IC50 in µg/ml, TZM-bl/pseudovirus neutralizing assay: 2.5 µg/mL
[32]
  IC50 in µg/ml, TZM-bl/pseudovirus neutralizing assay: 0.8 µg/mL
[33]
  IC50 in µg/ml, TZM-bl/pseudovirus neutralizing assay: 15.9 µg/mL
[34]
  IC50 in µg/ml, TZM-bl/pseudovirus neutralizing assay: 4.08 µg/mL
[35]
  IC50 in µg/ml, TZM-bl/pseudovirus neutralizing assay: 1.23 µg/mL
[36]
  IC50 in µg/ml, TZM-bl/pseudovirus neutralizing assay: 1.85 µg/mL
[37]
  IC50 in µg/ml, TZM-bl/pseudovirus neutralizing assay: 1.18 µg/mL
wild-type (WT) YU2 gp120
  binding result: binds
